Measurements from patent US20240189424A1 (published 2024).

T1: Soluble monomeric B7H6-His (UniProt Q68D85 25-262, limits assumed)
T1 construct: extracellular domain; also called monovalent B7H6; soluble B7H6; not shown: C-terminal Avi-tag and 6xHis-tag
T1 sequence (looked up): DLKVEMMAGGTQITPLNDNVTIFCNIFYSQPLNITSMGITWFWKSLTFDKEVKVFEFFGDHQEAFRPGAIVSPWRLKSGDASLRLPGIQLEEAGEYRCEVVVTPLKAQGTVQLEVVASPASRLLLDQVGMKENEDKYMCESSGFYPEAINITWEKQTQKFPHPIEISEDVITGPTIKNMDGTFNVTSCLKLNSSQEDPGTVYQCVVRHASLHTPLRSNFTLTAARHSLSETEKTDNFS


Assays:
[1] = biological target: T1, Soluble monomeric B7H6-His; experiment: BLI, Fc fusion on Protein A tips, monovalent B7H6-His
Procedure: (§1) BioLayer Interferometry (BLI) measurements of affinity KD were obtained using the ForteBio Octet RED96 system as previously described. Briefly, Protein A-coated biosensor tips were “activated” by incubation with 41 nM TZ47-Fc, NKp30-Fc, or CC3-Fc for 10 min to load tips. Binding to soluble B7H6-His were assessed by allowing TZ47-Fc, NKp30-Fc, or CC3-Fc coated tips to equilibrate in PBS+0.1% Tween-20 (PBST) for 5 min, followed by association steps in 200 μL of each antigen at concentrations ranging from 0 to 3000 nM for 10 min, and dissociation steps in 200 µL of PBST for 5 min. Data was analyzed using Octet® System Data Analysis software.
(§2) Clone CC5, which contains only the consensus S82P mutation, along with CC3, which had two additional amino acid substitutions, were chosen for further characterization. To define binding affinities and kinetics with improved resolution, CC3, CC5, NKp30, and TZ47 sequences were expressed recombinantly as Fc fusion proteins. Affinity to monovalent B7H6 was determined by Biolayer Interferometry (BLI). […] The fast on and off rate profile of NKp30 was maintained in the variants despite the increase in overall affinity.

[2] = biological target: T1, Soluble monomeric B7H6-His; experiment: BLI (Octet RED96), Fc fusion on Protein A tips, monovalent B7H6-His in solution, steady state affinity
Procedure: as §1, §2

Molecule | fold improvement of KD compared to NKp30 [1] [fold] | Kd [2] [nM]
CC3-Fc (from UniProt O14931 19-135) (Fc fusion) | 2 | 680
CC5-Fc (Fc fusion, also called clone CC5; not shown: mouse IgG2a Fc domain) LWVSQPPEIRTLEGSSAFLPCSFNASQGRLAIGSVTWFRDEVVPGKEVRNGTPEFRGRLAPLAPSRFLHDHQAELHIRDVRGHDASIYVCRVEVLGLGVGTGNGTRLVVEKEHPQLG | 2 | 580
NKp30-Fc (Fc fusion, Extracellular domain of NKp30 fused to a mouse IgG2a Fc domain, expressed in expi293 HEK cells, bivalent; also called native NKp30; wildtype NKp30; not shown: mouse IgG2a Fc domain) LWVSQPPEIRTLEGSSAFLPCSFNASQGRLAIGSVTWFRDEVVPGKEVRNGTPEFRGRLAPLASSRFLHDHQAELHIRDVRGHDASIYVCRVEVLGLGVGTGNGTRLVVEKEHPQLG |  | 1300
